Article PMC8113585 (Nature Communications, 2020)

B1: mAb nCoV396 (recombinant human IgG1) (antibody, V domains shown)
VH: QVQLVESGGGVVQPGRSLRLSCAASGFTFSSYIMHWVRQAPGKGLEWVAVISYDGSNEAYADSVKGRFTISRDNSKNTLYLQMSSLRAEDTGVYYCARETGDYSSSWYDSWGRGTLVTVSS
VL: QLVLTQSPSASASLGASVKLTCTLSSGHSNYAIAWHQQQPEKGPRYLMKVNSDGSHTKGDGIPDRFSGSSSGAERYLTISSLQSEDEADYYCQTWGTGIQVFGGGTKLTVL
notes: also called mAb-396; IgH ID H16030
B2: human monoclonal antibody nCoV396, recombinant IgG1 (antibody, V domains shown)
VH: B1 VH
VL: B1 VL
notes: also called mAb nCoV396

Columns and labels:
Details in all cases: both partners purified
[1] = molecular target: T1, SARS-CoV-2 nucleocapsid (N) protein, full length (N-FL, 1-419) (Severe acute respiratory syndrome …, UniProt P0DTC9); test: SPR; Biacore X100; […]; room temperature; 1:1 binding model, […]
T1 construct: also called SARS-CoV-2 N protein

[2] = molecular target: T2, SARS-CoV nucleocapsid (N) protein, full length (N-FL) (Severe acute respiratory syndrome …, UniProt P59595); test: as above
T2 construct: also called SARS-CoV N protein; SARS-CoV N-FL

[3] = molecular target: T3, MERS-CoV nucleocapsid (N) protein, full length (N-FL) (MERS-CoV, strain , UniProt K9N4V7); test: as above
T3 construct: also called MERS-CoV N protein; MERS-CoV N-FL

[4] = molecular target: T4, SARS-CoV N protein (N-FL) (Severe acute respiratory syndrome …, UniProt P59595); test: SPR; Biacore X100; […]; room temperature; 1:1 binding model
T4 construct: also called SARS-CoV N-FL

[5] = molecular target: T5, SARS-CoV-2 full-length nucleocapsid (N) protein (N-FL: 1-419) (Severe acute respiratory syndrome …, UniProt P0DTC9); test: as above
T5 construct: also called SARS-CoV-2 N protein

[6] = molecular target: T6, MERS-CoV N protein (N-FL) (MERS-CoV, strain , UniProt K9N4V7); test: as above
T6 construct: also called MERS-CoV N-FL; Middle East respiratory syndrome coronavirus N protein

Binder | koff [1] [s⁻¹] | kon [1] [M⁻¹ s⁻¹] | Kd [2] [nM] | koff [2] [s⁻¹] | kon [2] [M⁻¹ s⁻¹] | Kd [3] [nM] | koff [3] [s⁻¹] | kon [3] [M⁻¹ s⁻¹] | Kd [4] [nM] | Kd [5] [nM] | Kd [6] [nM]
B1 | 2.89e-06 | 2830 | 7.44 | 0.000295 | 39700 | 7.43 | 0.0004 | 53800 |  |  | 
B2 |  |  |  |  |  |  |  |  | 7.4 | 1.02 | 7.4
